Results reported in publication PMC8482623.

Substrate: Nc1ncnc2c1ncn2[C@@H]1O[C@H](COP(=O)(O)OP(=O)(O)OP(=O)(O)O)[C@@H](O)[C@H]1O
Assay: purified protein
Conditions: 50 mM Tris-HCl pH 8.0, 20 mM MgCl2, 1 mM EDTA, 37 °C

B1: mBcs1 (full-length mouse Bcs1; mBcs1-His) (Mus musculus) (protein)
chain: MPFSDFVLALKDNPYFGAGFGLVGVGTALAMARKGAQLGLVAFRRHYMITLEVPARDRSYAWLLSWLTRHSTRTQHLSVETSYLQHESGRISTKFEFIPSPGNHFIWYQGKWIRVERNRDMQMVDLQTGTPWESVTFTALGTDRKVFFNILEEARALALQQEEGKTVMYTAVGSEWRTFGYPRRRRPLDSVVLQQGLADRIVKDIREFIDNPKWYIDRGIPYRRGYLLYGPPGCGKSSFITALAGELEHSICLLSLTDSSLSDDRLNHLLSVAPQQSLVLLEDVDAAFLSRDLAVENPIKYQGLGRLTFSGLLNALDGVASTEARIVFMTTNYIDRLDPALIRPGRVDLKEYVGYCSHWQLTQMFQRFYPGQAPSLAENFAEHVLKATSEISPAQVQGYFMLYKNDPMGAVHNIESLR
With B1 the Km was 40 µM.
